Measured values published in patent EP1724347A2 (Yale University, dated 2006).
Where no end group is shown, it is not given here.

Legend:
[1] = target: Carbonic anhydrase II (Sigma); test: fluorescence titration of the labeled peptide, PBS
Calmodulin (Sigma) = Calmodulin (Sigma) (Homo sapiens (Human), UniProt P0DP23 2-149); test: fluorescence titration of the labeled peptide; buffer with 130 mM KCl, 1 mM CaCl2
[2] = target: T1, Human recombinant Bcl-2 (1-205), soluble GST-fusion (human, UniProt P10415 1-205); test: change of fluorescence emission of the fluorescein-labeled peptide on titration with Bcl-2, 4°C, PBS
T1 construct: Bought from Santa Cruz Biotechnology; also called GST-Bcl-2; not shown: glutathione S-transferase (GST) fusion partner
T1 sequence (P10415 1-205): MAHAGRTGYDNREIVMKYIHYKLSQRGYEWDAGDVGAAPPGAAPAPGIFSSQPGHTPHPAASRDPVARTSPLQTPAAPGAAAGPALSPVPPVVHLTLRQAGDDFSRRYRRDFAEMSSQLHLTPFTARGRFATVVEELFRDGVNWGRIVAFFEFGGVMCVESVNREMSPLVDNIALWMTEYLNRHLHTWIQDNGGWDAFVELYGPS

[3] = target: T2, GST-hDM2 (residues 1-188) (human, UniProt Q00987 1-188); test: competition with 10 nM p53AD-Flu for 400 nM GST-hDM2; fraction of p53AD-Flu bound at equilibrium
T2 construct: also called human oncoprotein double minute two; not shown: glutathione S-transferase (GST) fusion partner
T2 sequence (Q00987 1-188): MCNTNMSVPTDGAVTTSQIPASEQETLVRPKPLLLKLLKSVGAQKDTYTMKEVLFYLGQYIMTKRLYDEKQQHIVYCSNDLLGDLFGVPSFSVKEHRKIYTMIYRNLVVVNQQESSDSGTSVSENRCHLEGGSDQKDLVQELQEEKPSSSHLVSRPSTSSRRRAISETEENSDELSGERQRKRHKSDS

Kd [1] [µM]	Kd (Calmodulin (Sigma)) [µM]	Kd [2] [nM]	Ki [3] [nM]	Binder
22	25	363	–	GQVGRQLAIIGDDINRYC(5‑iodoacetamidofluorescein)-NH2 (also called Bak BH3 peptide; Bak 72-94) [Bak peptide, fluorescein-labeled form with additional carboxy-terminal YC]
–	–	–	722	GPSQPTYPGDDAPVEDLIRFKFLLQWYLLAL (designed binder, also called p3559) [pZutshi, as competitor (not labeled)]
